Experimental data published in paper PMC6044645.

Target: Class I polyhydroxyalkanoate synthase (PhaC) from Rhodovulum sulfidophilum (Rhodovulum sulfidophilum)
Assay: SEC

Substance: Class I polyhydroxyalkanoate synthase (PhaC) from Rhodovulum sulfidophilum (from UniProt A0ABS1RUN8 1-567) (enzyme)
- stoichiometry N: 2
